Patent US20190352359A1 (IMMATICS BIOTECHNOLOGIES, published 2019)

B1: ANO7-002 (peptide)
peptide: IYVSLAHVL
notes: also called IYVSLAHVL
B2: HEPHL-005 (peptide)
peptide: RYFIAAEKILW
notes: also called RYFIAAEKILW
B3: SLC45A2-006 (peptide)
peptide: LYTVPFNLI
notes: also called LYTVPFNLI
B4: F5-006 (peptide)
peptide: PYSIYPHGVTF
notes: also called PYSIYPHGVTF
B5: FLT3-009 (peptide)
peptide: AYPQIRCTW
notes: also called AYPQIRCTW
B6: NOTU-001 (peptide)
peptide: PYWWNANMVF
notes: also called PYWWNANMVF
B7: SLC6A3-002 (peptide)
peptide: IYPEAIATL
notes: also called IYPEAIATL
B8: EPY-001 (peptide)
peptide: MYDLHHLYL
notes: also called MYDLHHLYL
B9: TFEC-004 (peptide)
peptide: IYSSQLPSF
notes: also called IYSSQLPSF
B10: TERT-003 (peptide)
peptide: FFYVTETTF
notes: also called FFYVTETTF
B11: OR1N1-001 (peptide)
peptide: MYTIVTPML
notes: also called MYTIVTPML
B12: FLT3-012 (peptide)
peptide: TQAGEYLLF
notes: also called TQAGEYLLF
B13: TRDV3-002 (peptide)
peptide: VYSNPDLFW
notes: also called VYSNPDLFW
B14: ACSM1-001 (peptide)
peptide: IFIPATILL
notes: also called IFIPATILL
B15: ADAM18-001 (peptide)
peptide: IFLPFFIVF
notes: also called IFLPFFIVF
B16: NMUR2-003 (peptide)
peptide: AFQNVISSF
notes: also called AFQNVISSF
B17: MAGEA4-008 (peptide)
peptide: IFPKTGLLII
notes: also called IFPKTGLLII
B18: ABCC11-004 (peptide)
peptide: FFLQESPVF
notes: also called FFLQESPVF
B19: QRFPR-004 (peptide)
peptide: VYAFMNENF
notes: also called VYAFMNENF
B20: LOXL4-002 (peptide)
peptide: AWSPPATLF
notes: also called AWSPPATLF
B21: HHIPL2-001 (peptide)
peptide: AYAPRGSIYKF
notes: also called AYAPRGSIYKF
B22: HEPHL-008 (peptide)
peptide: YYIGIVEEYW
notes: also called YYIGIVEEYW
B23: MMP11-020 (peptide)
peptide: ALMSAFYTF
notes: also called ALMSAFYTF
B24: SMC1B-003 (peptide)
peptide: LYPDSVFGRLF
notes: also called LYPDSVFGRLF
B25: NKX-001 (peptide)
peptide: RYLSVCERL
notes: also called RYLSVCERL
B26: OR9-001 (peptide)
peptide: LYYGSILYI
notes: also called LYYGSILYI
B27: CHRNA9-004 (peptide)
peptide: YYIATMALI
notes: also called YYIATMALI
B28: MMP12-018 (peptide)
peptide: KYVDINTFRL
notes: also called KYVDINTFRL
B29: NLRP2-008 (peptide)
peptide: KYLITTFSL
notes: also called KYLITTFSL
B30: FCRL5-007 (peptide)
peptide: LSSPVHLDF
notes: also called LSSPVHLDF

Molecular target: T1, HLA-A*24
T1 construct: Monomers captured on streptavidin plates; also called peptide-receptive MHC molecules; MHC complexes
Assay: UV peptide-exchange ELISA (anti-b2m); yield grade ++++ = >75%
From the text: Candidate peptides for T cell based therapies according to the present invention were further tested for their MHC binding capacity (affinity). The individual peptide-MHC complexes were produced by UV-ligand exchange, where a UV-sensitive peptide is cleaved upon UV-irradiation, and exchanged with the peptide of interest as analyzed. Only peptide candidates that can effectively bind and stabilize the peptide-receptive MHC molecules prevent dissociation of the MHC complexes. To determine the yield of the exchange reaction, an ELISA was performed based on the detection of the light chain (p2m) of stabilized MHC complexes. The assay was performed as generally described in Rodenko et al. (Rodenko et al., 2006)
96 well MAXISorp plates (NUNC) were coated over night with 2 ug/ml streptavidin in PBS at room temperature, washed 4× and blocked for 1 h at 37° C. in 2% BSA containing blocking buffer. Refolded HLA-A*02:01/MLA-001 monomers served as standards, covering the range of 15-500 ng/ml. Peptide-MHC monomers of the UV-exchange reaction were diluted 100-fold in blocking buffer. Samples were incubated for 1 h at 37° C., washed four times, incubated with 2 ug/ml HRP conjugated anti-β2m for 1h at 37° C., washed again and detected with TMB solution that is stopped with […]. Absorption was measured at 450 nm. Candidate peptides that show a high exchange yield (preferably higher than 50%, most preferred higher than 75%) are generally preferred for a generation and production of antibodies or fragments thereof, and/or T cell receptors or fragments thereof, as they show sufficient avidity to the MHC molecules and prevent dissociation of the MHC complexes.

Binder | peptide exchange yield [%]
B1 | > 75
B2 | > 75
B3 | > 75
B4 | > 75
B5 | > 75
B6 | > 75
B7 | > 75
B8 | > 75
B9 | > 75
B10 | > 75
B11 | > 75
B12 | > 75
B13 | > 75
B14 | > 75
B15 | > 75
B16 | > 75
B17 | > 75
B18 | > 75
B19 | > 75
B20 | > 75
B21 | > 75
B22 | > 75
B23 | > 75
B24 | > 75
B25 | > 75
B26 | > 75
B27 | > 75
B28 | > 75
B29 | > 75
B30 | > 75
